Among the data in article PMC5408392 are stoichiometry N values, retold here.

Assay in all cases: SEC-MALS; SEC followed by multiangle light scattering of the SEC-purified Δ123 species
For orientation: In gel filtration, larger molecules generally elute earlier.

Assay [1] deals with Δ123 E2 dimer (G1a strain H77c) (hepatitis C virus genotype 1a, strain H77c) (UniProt P27958).
For assay [2], the target named is Δ123 E2 high-molecular-weight form 2 (HMW2, G1a strain H77c) (hepatitis C virus genotype 1a, strain H77c) (UniProt P27958).
The target of assay [3] is Δ123 E2 high-molecular-weight form 1 (HMW1, G1a strain H77c) (hepatitis C virus genotype 1a, strain H77c) (UniProt P27958).

With “Δ123 E2 dimer (G1a strain H77c) (from UniProt P27958 384-661) (domain or fragment)”, in assay [1], the stoichiometry N came to 2.1. In turn, “Δ123 E2 high-molecular-weight form 2 (HMW2, G1a strain H77c) (from UniProt P27958 384-661) (domain or fragment)” registered a stoichiometry N in assay [2] of 5.1.

Consider “Δ123 E2 high-molecular-weight form 1 (HMW1, G1a strain H77c) (from UniProt P27958 384-661) (domain or fragment)”, for which the stoichiometry N in assay [3] amounted to 51.6.

In general, stoichiometry N refers to a count of units in the complex or per binding partner.
